From paper PMC3932107 come the findings set out here.

Assay [1] addresses Alexa488-labeled γ-synuclein (human) (UniProt O76070). Kind of assay: photon counting histogram.
The target in assay [2] is CPM-labeled γ-synuclein (human) (UniProt O76070). Put plainly: other fluorescence titration.

The term stoichiometry N denotes the number of molecules, sites or subunits per partner or assembly. In assay [1], “Alexa488-labeled γ-synuclein (from UniProt O76070 1-127) (natural protein)” returned a stoichiometry N of 20.

Broadly, the Kd is the free concentration of one partner at which half of the binding sites on the other are occupied at equilibrium, for simple one-to-one binding. Substance “γ-synuclein, purified from E. coli, unlabelled (from UniProt O76070 1-127) (natural protein)” yielded a Kd in assay [2] of 5 nM.
